Here are results for 14 molecules from publication PMC4859805, “Molecular mechanism of activation-triggered subunit exchange in Ca^2+/calmodulin-dependent protein kinase II” (eLife, 2016).

First the molecules themselves.
B5: human CaMKII-α hub domain (domain or fragment, UniProt Q9UQM7 345-475, looked up)
chain: VRKQEIIKVTEQLIEAISNGDFESYTKMCDPGMTAFEPEALGNLVEGLDFHRFYFENLWSRNSKPVHTTILNPHIHLMGDESACIAYIRITQYLDAGGIPRTAQSEETRVWHRRDGKWQIVHFHRSGAPSV
notes: Ca2+/calmodulin-dependent protein kinase II alpha, human, hub domain; residues 345-475 are stated for the crystallization construct; The limits are stated only for the crystallization construct; also called the hub; isolated hub; source: E. coli BL21, purified (Ni-NTA, Q-FF, Superose 6); not shown: His6, N-terminal, cleaved; copies: 12 or 14

The target of data set [1] is T1, human CaMKII-α hub (Homo sapiens, UniProt Q9UQM7).
T1 construct: human CaMKII-α hub consisted of residues 345–475 (UNIPROT id: Q9UQM7); 6-histidine tag with PreScission protease site (N, cleaved yes); made in house; host or cells: E. coli BL21
T1 sequence (Q9UQM7 345-475): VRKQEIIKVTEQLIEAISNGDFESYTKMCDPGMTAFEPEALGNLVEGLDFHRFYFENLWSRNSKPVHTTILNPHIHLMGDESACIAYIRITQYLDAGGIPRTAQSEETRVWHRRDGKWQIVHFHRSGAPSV
As to the kind of experiment: Fluorescence polarization competition assay with unlabeled peptides. The class given is binding. Here is the method:
For the competition experiments, 2 nM of various labeled peptides were bound to 30 μM of the hub, resulting in high fluorescence polarization. Upon titration with the corresponding unlabeled versions of the peptides, the labeled peptides were competed off, and the fluorescence polarization decreased to the baseline value (Figure 3C–E). The value of the inhibition constant, IC50, is ~100 μM for the unlabeled peptides, whether phosphorylated or not. […]
The fluorescence polarization binding experiments were initiated by adding 15 μL of 2 nM BODIPY labeled peptides (buffer: 25 mM Tris at pH 8.0) to 15 μL of different concentrations of the human CaMKII-α hub domain (ranging from 0–1000 μM in 25 mM Tris at pH 8.0, 150 mM KCl, 10% glycerol and 0.02% Tween). […] The fluorescence polarization was read from 20 μL of these reaction mixtures in opaque black 96-well plates using a Synergy H4 hybrid microplate reader with a 485/20 nm excitation filter, and a 528/20 nm emission filter. Error bars are calculated from the standard error of mean between replicates of experiments. […]
where, A is the observed fluorescence polarization (FP) value, Af is the FP value for free labeled ligand, A0 is the FP value in the absence of unlabeled ligand, KD is the dissociation constant, [P]tot is the total protein concentration, and [L]tot is the total concentration of the unlabeled ligand. […]

Data set [2] addresses N. vectensis CaMKII-A hub domain (Nematostella vectensis). As to the kind of experiment: crystal structure; N. vectensis CaMKII-A hub; 0.2 M potassium thiocyanate, 20% w/v PEG 3350, pH 7.0.
For data set [3], the target named is N. vectensis CaMKII-B hub domain (Nematostella vectensis). Nature of the data set: crystal structure; N. vectensis CaMKII-B hub; 2.5 M sodium chloride, 0.1 M acetate pH 4.2, 0.25 M lithium sulphate.
The target in data set [4] is T1, human CaMKII-α hub. As to the kind of experiment: Fluorescence polarization, direct titration of hub to BODIPY-labeled peptide. To be noted: 2 nM Bodipy-FL-labeled peptide, hub 0-1000 μM, 25 mM Tris pH 8.0; non-saturable binding at high hub concentrations, value not relied on; read-out: KD derived from direct titration of the hub to the labeled peptide. The text has this:
To analyze the mechanism of subunit exchange, we focused initially on potential interactions between the CaM-binding element and the hub. We had shown previously that mutation of the CaM-binding element blocks subunit exchange, and that phosphorylation of Thr 305 and Thr 306 in the CaM-binding element potentiates exchange ([Stratton et al., 2014]). We prepared both phosphorylated and unphosphorylated forms of peptides spanning the CaM-binding element of CaMKII-α (see Materials and methods). The peptides were labeled with a fluorophore (Bodipy-FL maleimide) at the C-terminal end, and binding was monitored by changes in fluorescence polarization (Figure 3A). To a fixed volume of labeled peptide (2 nM), increasing concentrations of the hub was added, and the change in fluorescence polarization was monitored (Figure 3B). […]
The fluorescence polarization binding experiments were initiated by adding 15 μL of 2 nM BODIPY labeled peptides (buffer: 25 mM Tris at pH 8.0) to 15 μL of different concentrations of the human CaMKII-α hub domain (ranging from 0–1000 μM in 25 mM Tris at pH 8.0, 150 mM KCl, 10% glycerol and 0.02% Tween). […] The fluorescence polarization was read from 20 μL of these reaction mixtures in opaque black 96-well plates using a Synergy H4 hybrid microplate reader with a 485/20 nm excitation filter, and a 528/20 nm emission filter. […]
A general note: Polarisation of emitted light reports the rotation of a fluorescent probe.

Data set [5] concerns the target S. rosetta CaMKII holoenzyme, full length, wild type (Salpingoeca rosetta). Nature of the data set: native MS; full-length S. rosetta CaMKII at 3 μM; 1 M ammonium acetate pH 7.2.
Data set [6] has the same target. As to the kind of experiment: SEC; analytical gel filtration, Superose 6 10/300, 25 mM Tris pH 8.0, 150 mM KCl, 10% glycerol, 1 mM TCEP or 2 mM DTT; injection at 700 nM subunits; tryptophan fluorescence. For orientation: SEC sorts molecules by how far they enter the pores of the column.
Data set [7] has the same target. Nature of the data set: native MS; full-length S. rosetta CaMKII at 48 μM; 1 M ammonium acetate pH 7.2.
For data set [8] the target is unchanged. Nature of the data set: native MS; full-length S. rosetta CaMKII at 12 μM; 1 M ammonium acetate pH 7.2.
Data set [9] addresses S. rosetta CaMKII hub domain (Salpingoeca rosetta). As to the kind of experiment: SEC-MALS; S. rosetta hub at ∼3.2 mg/ml (~200 μM) on Superdex 200 10/300; 25 mM Tris pH 8.0, 150 mM KCl, 1 mM TCEP, 10% glycerol; 25°C.
The target of data set [10] is hub-△kinase (hub, linker and autoinhibitory segment of human CaMKII-α, without the kinase domain) (human). As to the kind of experiment: SEC; analytical gel filtration, Superose 6 10/300, 25 mM Tris pH 8.0, 150 mM KCl, 10% glycerol, 1 mM TCEP or 2 mM DTT; injection at 700 nM subunits; tryptophan fluorescence.
Data set [11] has as its target B5. As to the kind of experiment: fluorescence polarisation; competition: 2 nM BODIPY labelled peptide bound to 30 μM hub, unlabeled peptide 0-500 μM added; KD from a non-linear fit assuming one peptide site per subunit and equal KD of labelled and unlabeled peptide. As to conditions: both partners purified.
Data set [12] concerns the molecule itself. As to the kind of experiment: crystal structure; human CaMKII-α hub with uncleaved tag; 35% (v/v) MPD, 0.1 M HEPES pH 7.3.
Data set [13] concerns the molecule itself. Nature of the data set: native MS; human hub; nanoelectrospray Q-TOF, 1 M ammonium acetate pH 7.2; CID MS/MS at 30 V collision energy.
Data set [14] deals with the molecule itself. As to the kind of experiment: native MS; F397A hub: 200 μM in 1 M ammonium acetate; 2 μM in 25 mM Tris, 1 mM TCEP, pH 8; 250 mM ammonium acetate, 25 mM Tris, 1 mM TCEP, pH 8; oligomer identity confirmed by CID.
Data set [15] concerns the molecule itself. Nature of the data set: SEC; analytical gel filtration, Superose 6 10/300; elevated injection concentration of 3–5 μM; reinjection of the dodecamer/tetradecamer peak of the holoenzyme; pre-incubation with Mg2+-ATP for the holoenzyme.

Values joined by “and” are separate entries in the source; they are usually repeats but may differ in a detail not shown here. Equal entries are not always repeated. Square brackets hold non-standard residues; d marks the D form. Ends that are not written are not given here. pT = C[C@@H](OP(=O)(O)O)[C@H](N)C(=O)O

As usually defined, the stoichiometry N is a count of units in the complex or per binding partner. The IC50 is the concentration that inhibits the measured activity by half.

Consider `CC[C@H](C)[C@H](NC(=O)[C@H](C)NC(=O)CNC(=O)[C@H](CCCCN)NC(=O)[C@H](CC(C)C)NC(=O)[C@H](CCCCN)NC(=O)[C@H](CCCNC(=N)N)NC(=O)[C@H](CCCNC(=N)N)NC(=O)[C@H](C)NC(=O)[C@H](CC(N)=O)NC(=O)[C@H](Cc1ccccc1)NC(=O)[C@H](CCCCN)NC(=O)[C@H](CCCCN)NC(=O)[C@@H](N)CC(C)C)C(=O)N[C@@H](CC(C)C)C(=O)N[C@H](C(=O)N[C@H](C(=O)N[C@@H](CCSC)C(=O)N[C@@H](CC(C)C)C(=O)N[C@@H](C)C(=O)N[C@@H](CS)C(=O)O)[C@@H](C)OP(=O)(O)O)[C@@H](C)O` [peptide D], for which the Kd on human CaMKII-α hub [1] (2 nM labeled peptide bound to 30 μM hub, competed with unlabeled peptide 0-500 μM, 25 mM Tris pH 8.0, non-linear least squares fit, one peptide-binding site per subunit, labeled peptide A used for peptide B, read-out: KD from competition experiments) is 52 µM.

Consider “LKEFNAERKLEGAILTTMLA [Peptide G, triple mutant of the residues 290-309 peptide, three positively charged residues replaced by Glu]”, for which the “Ability to compete the binding of the labeled peptide” value on human CaMKII-α hub [1] (hub bound to labeled peptide A, competition with unlabeled mutant peptides (Figure 3F)) was “fails to compete”.

Molecule “N. vectensis CaMKII-A hub domain (domain or fragment)” registered a stoichiometry N in data set [2] of 14.

On to “N. vectensis CaMKII-B hub domain (domain or fragment)”, for which the stoichiometry N in data set [3] was determined as 14.

On to RRKLKGAILTTMLATRC [peptide A], for which the Kd at human CaMKII-α hub [4] was roughly 100 µM.

For “S. rosetta CaMKII holoenzyme, full length, wild type”, the stoichiometry N in data set [5] is 2 and 4; in data set [6], 2; in [7], 4 and 6 and 8; in data set [8], 4 and 6.

Molecule “S. rosetta CaMKII hub domain (domain or fragment)” had a stoichiometry N in [9] of 4.

Turning to “hub-△kinase (hub, linker and autoinhibitory segment of human CaMKII-α, without the kinase domain) (domain or fragment)”, in data set [10], the percent of the sample in the dimer peak stood at 35%, the percent of the sample in the dodecamer/tetradecamer peak came to 65% and the stoichiometry N was determined as 2.

B1: Peptide D, unlabeled (human CaMKII-α 290-309 plus C-terminal cysteine, phosphorylated on Thr 306) (peptide)
peptide: LKKFNARRKLKGAILT[pT]MLAC
notes: human CaMKII-α, residues 290-309; added C-terminal cysteine; also called peptide phosphorylated on Thr 306; source: synthetic peptide, bought: Elim Biopharm, HPLC purified
Take B1: in data set [11], the IC50 is roughly 100 µM and the Kd was roughly 50 µM.

B2: Peptide B (human CaMKII-α 290-309, unphosphorylated, unlabeled) (peptide)
peptide: LKKFNARRKLKGAILTTMLA
notes: also called the unphosphorylated peptide; wild type peptide; source: synthetic peptide, gift of Leta Nutt (St. Jude Children's Research Hospital), HPLC purified
As to B2, in data set [11], the IC50 is roughly 100 µM and the Kd was roughly 90 µM.

B3: Peptide C, unlabeled (human CaMKII-α 290-309 plus C-terminal cysteine, phosphorylated on Thr 305) (peptide)
peptide: LKKFNARRKLKGAIL[pT]TMLAC
notes: human CaMKII-α, residues 290-309; added C-terminal cysteine; also called peptide phosphorylated on Thr 305; source: synthetic peptide, bought: Elim Biopharm, HPLC purified
In data set [11], B3 gave an IC50 of roughly 100 µM and a Kd of roughly 60 µM.

B4: human CaMKII-α hub, crystallization construct with uncleaved expression tag (domain or fragment)
chain: GSSHHHHHHSSGLEVLFQGPHMVRKQEIIKVTEQLIEAISNGDFESYTKMCDPGMTAFEPEALGNLVEGLDFHRFYFENLWSRNSKPVHTTILNPHIHLMGDESACIAYIRITQYLDAGGIPRTAQSEETRVWHRRDGKWQIVHFHRSGAPSV
notes: uncleaved N-terminal expression tag: hexahistidine followed by a PreScission protease cleavage site; written as a part because it docks on the hub; Ca2+/calmodulin-dependent protein kinase II alpha, human, hub domain, residues 345-475; The 22-residue tag was left uncleaved for crystallization; also called dodecameric human CaMKII-α hub; source: E. coli BL21, purified (Ni-NTA, Q-FF, Superose 6, …)
B4: the “stoichiometry N” value in data set [12] turned out to be 12.

Regarding B5, the “stoichiometry N” value in [13] was 12 and 14.

B6: human CaMKII-α hub domain F397A (domain or fragment, UniProt Q9UQM7 345-475, looked up)
chain: VRKQEIIKVTEQLIEAISNGDFESYTKMCDPGMTAFEPEALGNLVEGLDFHRAYFENLWSRNSKPVHTTILNPHIHLMGDESACIAYIRITQYLDAGGIPRTAQSEETRVWHRRDGKWQIVHFHRSGAPSV
notes: Ca2+/calmodulin-dependent protein kinase II alpha, human, hub domain; residues 345-475 are stated for the crystallization construct of the wild type; residue number according to PDB 1HKX; also called F397A mutant hub; mutant hub; source: E. coli BL21, purified; not shown: His6, N-terminal, cleaved
For B6, the “stoichiometry N” value in [14] stood at 14; in data set [15], 2.
